Assay results taken from patent US20250262210A1 (TRUSTEES OF COLUMBIA UNIVERSITY IN THE CITY OF NEW YORK, published 2025).
Changes are numbered by the printed parent chain. Numbers in names are those of the source.

Assays:
[1] = biological target: T1, AXL (human, UniProt P30530 26-894, limits assumed); experiment: IP/MS, U87 cells (summary of Example 1)
Description: (§1) Lysates were immunoprecipitated with FLAG affinity matrix and eluted with FLAG peptide. […] Protein gel slices were excised and in-gel digestion performed as previously described (83), with minor modifications. Gel slices were washed with 1:1 A cetonitrile and 100 mM ammonium bicarbonate for 30 min then dehydrated with 100% acetonitrile for 10 min until shrunk. The excess acetonitrile was then removed and the slices dried in speed-vacuum at room temperature for 10 min. Gel slices were reduced with 5 mM DTT for 30 min at 56° C. in an air thermostat, cooled down to room temperature, and alkylated with 11 mM IAA for 30 min with no light. Gel slices were then washed with 100 mM of ammonium bicarbonate and 100% acetonitrile for 10 min each. Excess acetonitrile was removed and dried in a speed-vacuum for 10 min at room temperature and the gel slices were re-hydrated in a solution of 25 ng/μl trypsin in 50 mM ammonium bicarbonate for 30 min on ice and digested overnight at 37° C. in an air thermostat. Digested peptides were collected and further extracted from gel slices in extraction buffer (1:2 ratio by volume of 5% formic acid:acetonitrile) at high speed, shaking in an air thermostat. […] The following modifications were used for protein identification and quantification: oxidation of methionine (M), acetylation of the protein N-terminus, and deamination for asparagine or glutamine (NQ).

[2] = biological target: T2, EGFR (human, UniProt P00533 25-1210); experiment: IP/MS, U87 cells (summary of Example 1)
T2 construct: also called epidermal growth factor receptor
Description: as §1

[3] = biological target: T3, UBE4B (human, UniProt O95155 1-1302, limits assumed); experiment: IP/MS, LZTR1 R810W-FLAG, U87
T3 sequence (looked up): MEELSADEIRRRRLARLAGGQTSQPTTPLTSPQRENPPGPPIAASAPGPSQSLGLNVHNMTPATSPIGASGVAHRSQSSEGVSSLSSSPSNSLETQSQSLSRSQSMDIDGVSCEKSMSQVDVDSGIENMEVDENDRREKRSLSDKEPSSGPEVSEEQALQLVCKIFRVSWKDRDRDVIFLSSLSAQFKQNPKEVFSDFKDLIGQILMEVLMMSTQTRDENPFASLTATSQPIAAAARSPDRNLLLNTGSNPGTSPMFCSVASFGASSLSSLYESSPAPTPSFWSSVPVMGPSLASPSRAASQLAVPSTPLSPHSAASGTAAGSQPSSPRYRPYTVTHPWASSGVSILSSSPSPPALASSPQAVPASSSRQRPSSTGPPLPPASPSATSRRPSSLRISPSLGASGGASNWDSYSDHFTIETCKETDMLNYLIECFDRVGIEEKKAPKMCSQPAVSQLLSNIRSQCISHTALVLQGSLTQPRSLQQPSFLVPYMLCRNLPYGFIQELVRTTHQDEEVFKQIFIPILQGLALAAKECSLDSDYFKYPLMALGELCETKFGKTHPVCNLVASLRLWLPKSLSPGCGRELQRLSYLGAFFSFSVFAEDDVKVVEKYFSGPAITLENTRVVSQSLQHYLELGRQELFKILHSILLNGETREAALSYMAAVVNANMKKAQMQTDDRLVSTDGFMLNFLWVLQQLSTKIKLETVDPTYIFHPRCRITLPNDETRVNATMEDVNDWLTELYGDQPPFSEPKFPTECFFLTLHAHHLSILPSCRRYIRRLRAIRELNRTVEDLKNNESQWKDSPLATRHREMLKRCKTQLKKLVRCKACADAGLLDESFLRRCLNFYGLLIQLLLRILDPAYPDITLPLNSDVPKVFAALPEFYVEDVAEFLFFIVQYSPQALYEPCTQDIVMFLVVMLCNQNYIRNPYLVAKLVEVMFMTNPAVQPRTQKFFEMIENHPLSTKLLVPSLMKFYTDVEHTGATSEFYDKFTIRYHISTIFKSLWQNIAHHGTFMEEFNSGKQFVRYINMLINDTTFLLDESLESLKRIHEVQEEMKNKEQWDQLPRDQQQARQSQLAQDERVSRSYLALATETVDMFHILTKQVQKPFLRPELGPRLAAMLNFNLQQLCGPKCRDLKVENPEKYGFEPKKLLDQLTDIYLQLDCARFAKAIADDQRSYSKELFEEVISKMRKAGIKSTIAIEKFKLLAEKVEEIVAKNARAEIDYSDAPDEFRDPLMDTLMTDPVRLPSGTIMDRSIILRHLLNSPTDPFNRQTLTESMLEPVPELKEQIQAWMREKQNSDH
In short: (§2)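 Gel slices were reduced with 5 mM DTT, alkylated with 11 mM IAA and digested overnight at 37° C. with trypsin. Peptides were analysed on an Orbitrap Fusion Tribrid by LC-MS/MS.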

[4] = biological target: TRIO (human, UniProt O75962 1-3097, limits assumed); experiment: IP/MS, LZTR1 R810W-FLAG, U87
In short: as §2

[5] = biological target: T1, AXL; experiment: IP/MS, LZTR1 R810W-FLAG, U87; spectral counts >2-fold against wild type
Description: as §1, with “(NQ). […]” for “(NQ).”

[6] = biological target: T2, EGFR; experiment: as above
Description: as §1, with “(NQ). […]” for “(NQ).”

Measured: binding result

B1: LZTR1-FLAG (other, human, UniProt Q8N653 1-840, looked up)
chain: MAGPGSTGGQIGAAALAGGARSKVAPSVDFDHSCSDSVEYLTLNFGPFETVHRWRRLPPCDEFVGARRSKHTVVAYKDAIYVFGGDNGKTMLNDLLRFDVKDCSWCRAFTTGTPPAPRYHHSAVVYGSSMFVFGGYTGDIYSNSNLKNKNDLFEYKFATGQWTEWKIEGRLPVARSAHGATVYSDKLWIFAGYDGNARLNDMWTIGLQDRELTCWEEVAQSGEIPPSCCNFPVAVCRDKMFVFSGQSGAKITNNLFQFEFKDKTWTRIPTEHLLRGSPPPPQRRYGHTMVAFDRHLYVFGGAADNTLPNELHCYDVDFQTWEVVQPSSDSEVGGAEVPERACASEEVPTLTYEERVGFKKSRDVFGLDFGTTSAKQPTQPASELPSGRLFHAAAVISDAMYIFGGTVDNNIRSGEMYRFQFSCYPKCTLHEDYGRLWESRQFCDVEFVLGEKEECVQGHVAIVTARSRWLRRKITQARERLAQKLEQEAAPVPREAPGVAAGGARPPLLHVAIREAEARPFEVLMQFLYTDKIKYPRKGHVEDVLLIMDVYKLALSFQLCRLEQLCRQYIEASVDLQNVLVVCESAARLQLSQLKEHCLNFVVKESHFNQVIMMKEFERLSSPLIVEIVRRKQQPPPRTPLDQPVDIGTSLIQDMKAYLEGAGAEFCDITLLLDGHPRPAHKAILAARSSYFEAMFRSFMPEDGQVNISIGEMVPSRQAFESMLRYIYYGEVNMPPEDSLYLFAAPYYYGFYNNRLQAYCKQNLEMNVTVQNVLQILEAADKTQALDMKRHCLHIIVHQFTKVSKLPTLRSLSQQLLLDIIDSLASHISDKQCAELGADI
notes: Expressed in HEK 293T, HeLa or U87 cells; used as cell lysate; also called LZTR1 wild type-FLAG; LZTR1 WT; not shown: FLAG tag at the C-terminus
binds: [1] | [2]

B2: LZTR1 R810W-FLAG (other, human, UniProt Q8N653 1-840, looked up)
chain: B1 chain with R810W
notes: Stably expressed in U87 cells by lentivirus; also called LZTR1-FLAG-R810W; LZTR1 RW; not shown: FLAG tag
binds: [3] | [4] | [5] | [6]
